The values below come from paper PMC5729022.

In experiment [1] the target is insoluble microfibrillar collagen type I from bovine Achilles tendon, Col I(S) (bovine) (UniProt P02453).
The target in experiment [2] is insoluble microfibrillar collagen type I from bovine skin, Col I(D) (bovine) (UniProt P02453).
Experiment [3] has as its target network soluble collagen type IV from human placenta (human) (UniProt P02462).
Experiment [4] deals with soluble fibrillar collagen type II from bovine tracheal cartilage (bovine) (UniProt P02459).
UniProt P02459, sequence (P02459 182-1241): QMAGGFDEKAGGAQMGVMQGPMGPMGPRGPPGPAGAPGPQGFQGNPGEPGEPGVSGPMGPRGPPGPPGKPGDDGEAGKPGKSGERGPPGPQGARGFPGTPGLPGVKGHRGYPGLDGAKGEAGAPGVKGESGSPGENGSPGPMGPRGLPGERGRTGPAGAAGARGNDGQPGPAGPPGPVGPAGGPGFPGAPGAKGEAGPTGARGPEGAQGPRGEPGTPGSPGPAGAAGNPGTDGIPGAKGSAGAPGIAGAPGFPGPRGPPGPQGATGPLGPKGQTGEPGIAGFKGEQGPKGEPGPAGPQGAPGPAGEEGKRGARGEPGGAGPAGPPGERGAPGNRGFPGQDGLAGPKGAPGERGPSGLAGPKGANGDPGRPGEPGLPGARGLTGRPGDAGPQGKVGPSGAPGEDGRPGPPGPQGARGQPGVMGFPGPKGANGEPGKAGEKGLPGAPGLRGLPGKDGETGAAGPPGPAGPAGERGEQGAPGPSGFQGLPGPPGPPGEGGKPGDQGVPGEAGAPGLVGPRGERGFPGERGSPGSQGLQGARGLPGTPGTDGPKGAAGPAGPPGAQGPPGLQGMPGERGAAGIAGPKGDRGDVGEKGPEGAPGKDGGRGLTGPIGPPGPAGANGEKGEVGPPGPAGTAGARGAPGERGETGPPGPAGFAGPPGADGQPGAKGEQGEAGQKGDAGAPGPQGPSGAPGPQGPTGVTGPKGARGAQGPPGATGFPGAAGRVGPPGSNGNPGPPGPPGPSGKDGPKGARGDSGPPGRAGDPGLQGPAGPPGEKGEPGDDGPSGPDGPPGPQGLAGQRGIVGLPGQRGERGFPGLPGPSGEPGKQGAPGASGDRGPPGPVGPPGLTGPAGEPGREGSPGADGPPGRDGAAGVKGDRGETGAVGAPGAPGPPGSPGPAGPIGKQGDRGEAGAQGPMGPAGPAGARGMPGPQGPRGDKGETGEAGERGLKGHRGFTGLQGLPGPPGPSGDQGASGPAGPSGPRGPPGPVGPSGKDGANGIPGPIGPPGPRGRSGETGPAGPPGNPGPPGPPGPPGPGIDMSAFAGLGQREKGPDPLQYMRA
Experiment [5] deals with soluble fibrillar collagen type III from human placenta (human) (UniProt P02461).
UniProt P02461, sequence (P02461 154-1221): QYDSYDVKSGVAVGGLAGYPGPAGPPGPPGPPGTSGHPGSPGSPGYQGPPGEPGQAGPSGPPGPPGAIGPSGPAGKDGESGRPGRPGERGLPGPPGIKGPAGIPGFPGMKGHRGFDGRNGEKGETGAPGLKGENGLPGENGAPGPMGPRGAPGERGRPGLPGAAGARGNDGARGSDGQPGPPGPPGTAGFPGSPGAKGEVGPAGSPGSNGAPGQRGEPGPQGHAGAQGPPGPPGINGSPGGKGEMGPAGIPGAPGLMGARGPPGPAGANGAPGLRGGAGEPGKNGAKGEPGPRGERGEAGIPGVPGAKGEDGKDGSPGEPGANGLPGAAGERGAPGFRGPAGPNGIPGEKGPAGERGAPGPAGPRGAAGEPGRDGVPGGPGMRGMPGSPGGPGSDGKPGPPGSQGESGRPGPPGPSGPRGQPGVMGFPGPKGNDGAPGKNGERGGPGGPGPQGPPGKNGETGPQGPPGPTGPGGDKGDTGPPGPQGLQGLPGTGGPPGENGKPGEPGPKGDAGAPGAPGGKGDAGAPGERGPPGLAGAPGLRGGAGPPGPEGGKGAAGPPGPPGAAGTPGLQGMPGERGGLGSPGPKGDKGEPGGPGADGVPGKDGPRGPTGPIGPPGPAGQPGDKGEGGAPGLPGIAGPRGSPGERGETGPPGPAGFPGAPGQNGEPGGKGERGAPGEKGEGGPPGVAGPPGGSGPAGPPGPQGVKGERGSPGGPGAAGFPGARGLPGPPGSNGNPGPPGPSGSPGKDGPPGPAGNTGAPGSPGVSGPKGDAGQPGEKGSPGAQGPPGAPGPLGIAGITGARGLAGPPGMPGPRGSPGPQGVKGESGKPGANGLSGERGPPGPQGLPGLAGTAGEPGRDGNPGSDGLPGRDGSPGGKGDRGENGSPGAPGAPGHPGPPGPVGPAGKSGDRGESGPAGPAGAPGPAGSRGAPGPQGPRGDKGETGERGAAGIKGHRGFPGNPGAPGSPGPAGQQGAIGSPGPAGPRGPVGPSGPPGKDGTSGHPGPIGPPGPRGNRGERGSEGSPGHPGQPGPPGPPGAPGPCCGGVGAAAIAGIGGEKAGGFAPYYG

Regarding “recombinant human integrin α2 I domain (GST fusion) (domain or fragment)”, the percent of C2C12 cells transfected with human integrin α2 adhering to the collagen coating, 5 mM Mg2+, LDH assay, 1 × 10^5 cells/ml was 44.2% in experiment [1]; 36.5% in experiment [2]; 16.1% in experiment [3]; 23.9% in experiment [4]; 18.5% in experiment [5]. The percent of HT1080 cells (endogenous human α2β1) adhering to the collagen coating, 5 mM Mg2+, LDH assay, 1 × 10^5 cells/ml in experiment [1] amounted to 45.6%; in experiment [2], 43.6%; in experiment [3], 24.7%; in experiment [4], 40.3%; in experiment [5], 28.1%.
As for “recombinant human integrin α1 I domain (GST fusion) (from UniProt P56199 169-363) (domain or fragment)”, in experiment [3], the percent of C2C12 cells transfected with human integrin α1 adhering to the collagen coating, 5 mM Mg2+, LDH assay, 1 × 10^5 cells/ml came to 51.9%.
For “recombinant rat integrin α1 I domain (GST fusion) (domain or fragment)”, the percent of Rugli cells (endogenous rat α1β1) adhering to the collagen coating, 5 mM Mg2+, LDH assay, 1 × 10^5 cells/ml in experiment [1] stood at 22.8%; in experiment [2], 27%; in experiment [3] it was 64.1%; in experiment [4], 18.9%; in experiment [5], 55.6%.
